From patent US20150376260A1

Tests used:
[1] = molecular target: CD86 (B7.2), human, on lymphatic cancer cell lines (human) (UniProt P42081); assay: cell-based or functional assay
[2] = molecular target: CD80 (B7.1), human, on lymphatic cancer cell lines (human) (UniProt P33681); assay: cell-based or functional assay
UniProt P33681, sequence (P33681 35-288): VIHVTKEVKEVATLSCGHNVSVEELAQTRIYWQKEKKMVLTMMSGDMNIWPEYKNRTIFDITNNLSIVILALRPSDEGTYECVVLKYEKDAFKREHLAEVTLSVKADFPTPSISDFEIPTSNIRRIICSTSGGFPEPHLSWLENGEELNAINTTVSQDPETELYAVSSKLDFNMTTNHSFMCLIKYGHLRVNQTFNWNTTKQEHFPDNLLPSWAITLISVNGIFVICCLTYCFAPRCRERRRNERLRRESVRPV

UniProt P42081, sequence (P42081 24-329): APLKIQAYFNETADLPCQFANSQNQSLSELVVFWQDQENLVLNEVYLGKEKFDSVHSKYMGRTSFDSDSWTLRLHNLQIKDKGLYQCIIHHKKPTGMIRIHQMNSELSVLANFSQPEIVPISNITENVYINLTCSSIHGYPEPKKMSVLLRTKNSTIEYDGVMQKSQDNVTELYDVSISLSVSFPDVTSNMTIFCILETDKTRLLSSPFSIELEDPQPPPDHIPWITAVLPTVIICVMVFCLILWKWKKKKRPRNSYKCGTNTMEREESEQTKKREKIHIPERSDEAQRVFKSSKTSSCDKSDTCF

CTLA4-FasL fusion protein
cancer killing activity (in-vitro bioassay, MTS cell viability) on lymphatic cancer cells [1]: 0.02 nM
cancer killing activity (in-vitro bioassay, MTS cell viability) on lymphatic cancer cells [2]: 0.02 nM
